Test results reported in paper PMC12819142, “Atomic models of the Toxoplasma cell invasion machinery” (Nature Structural & Molecular Biology, 2025).

B1: ICMT-associated protein 1 (ICMAP1) (natural protein)
chain: MMADLTLEPRGAGASRYLMTDLEDLDSSEGNSLVPYSRLGKSGNTDANLYSTPDMTTRYPGSRGLLRDDSRGSGGLDDPMGLPMRSLSPKDLGGRGGPRLSPAELKAQVRLRNMCGKPLRPDDVLVTRILTGEKSYWEALDEMRNLCASLTVENEKLKTGNAKATTKALEVEQKSRAEIRRLQTLQRVTRDELEMKLQDLTAENVRLRQSRDVERALQEQKVHMQKQIERLKQDSEEKGRLAAQRAREIHHLKEETQRSTDEAEALKGRVESLQAKLAEAISQKNLLLIRVKKDIRDIQDSAQQAREAVLAEKARSEQQAAEVEKHAQMQLQLHERKIRDLQQTVASEESQGEYYRRKYEEASKQLAKLKTQFDSTQNKTETDIALRERKLQELSESLNAAQKARDRSAQELNAMRSKYNILRGELEKAEQRRNHAEQEAIRAGAQVETMDVGRSTLEAKVSELQLERSGLMEKLQLAEKEVSELREAKNKIKASLDLAYQKEQFRLLEENSRIGTDLKVAQQQLDTVTRQKEQLQTDAERLRGAEEELREMQVDFLKMKTTLQLVQGRPCDNAKVVADGVVNALRAYAELKKATETQEQSMASLSQQNQALSQKANEAATLTREMLTLESENRSLNEHIASLTAELRKIGDQQTALQLEKEAQDEAFRQQIERVQKEAEARRRELDHQLEQAKERHRQETTKLTAELDRVKKLHDAEKKRTSELQVQVEDVKAEATQHTEGLEKRYQEQLRERNAQIEALSSEREEFAAETRAEIQQLKKTHADALKAARADRDKVLAERESHYQQQLEEMRTRQEQHAASQHHQRQELQQRLQQLELSFQETEANLRREVDAKAADVRSLQGQKEKLERELGAVKERLEDEQRSADRNLERVKRERQQDVERLQKELDDATRLAAEAERTAAEKIQSLETDVKNTRDQLKKANAGSEEKESLLEASKTRYADLENKHNDVVQKFNDLSEENKKLKKDLSAAADDKEAKEKQIKKLTDAQARDQQEIAAIKQKEREAIAAGDRLNAEIEKLKAEHRSAELKLKNDIDAVTTDKEAVEAKLAQVQKMHKEEAEALNSRIAQLTKEKADLEKAQRNLEEEKAALEQEKRKAASEAKVKQDLLEQKIAELQKQNQNLENGLRAAKAAGAAAAARPAPGAPGQAPPAAQAPQAGAPPAEEGGLFSWWGGGAAEAPPEAPASSAGAPAEAAPAPAAEAESSSWGWW
notes: source: endogenous, isolated conoids of T. gondii tachyzoites (CHAPS lysis, sonication, α-chymotrypsin)
B2: ICMAP2 (natural protein)
chain: MVTFKSGEVDEHHESFLRREPRSPSRSPSAVQSSWKPVCYIEEIDSLTTFPSSASCDSSSKTKSSRSLISTSLDQPRDSASSSSEPRQSGLLHVNAQDLSPSRPPESLYQTGYVRSPSSFDGTLSCVGEKTGVVRGKSGHPPLSFRSPRMQSVAHSEDRDRKGLTYSFDAYPPEVFSRWKGRSRTGESCGLVTSSRGRSPCSRSPPGRSFPRCVDPQTDRIEEASQNCLPQSSELHASEVLGPADPAACPTQKPTVEPDSSVAASVFCPGTQAESQQVPSLPTDAFSGGDPVRSQVGSKRSHLLEDIQGKTRCSAARAVIDFDASGIRSVVVSDLGGTPLRLSPYLDTLPRSNHPLVLSKAATSVPPYCSSSSENFSEARQGGESRLTGGAAPEGGKLKASAVLGGNPQPRSCPSGGTQAMGGKYQAEESPTRSVFRGKVTVPAAEVHTTQAAGCPSERKVGEFRCQTDTDTLRHFRKSLRSYSDSPKRPETNSLNQGRSGSSRIIGQLSDATFGCRDSMASVRGAFAPPTSTVSKSLRHDEAVLREQGIKVRQKDAIFLKGVEKRHLGMQAGRQDSKPRYGLESAASCNATGAGEDPSPGFRIAGRASSSICAGGSSGESMNSAFMRGLPGSASNVRLPQWMRDYGVEDPSLQTDGCSRNVVSTRHPGTCQYSSADARRPRMRVSAGAPANLTPYLWDENSDRDGDNSLEDISCGPPYRGEMTYSITHSGNSGNQLSSQLPPAPLSVPGDVGSFGFPVAHFVCSNCGATAVPPQCPTCGAVIVQFDGTTQIPVAYRTNGTDALGLASRAVLRNGDSRSVQFSGEADPQSRSYAPYDASPSRSRGPSASRRSHVHSSRQERRELSRGEAETERCTAGTARRSGMVAVTAKKSGPPSRQRLVASSGPSLPSTKKLASQVWGSPRVCAILCSFLGLPQLLTIRRCSKNLLVAAQFEMRYVLYGTLQQLLREEETSKKATSSRPKSCEPPSARNREGRGRTLTPGVASTASARDRSLPACPFNAQTLTRLLELSPAELTALKNGQLPDRRVADAKTPRPEELRARASRLRRLHAERVEEQRRRVSARTSGKRVDREATEPVLVGLDEEMQLRREMQLQHEEELLMRERRLQQQECELFKKQQEIWLQETQQRLRQNITRNGRPHFAVPEPAALSGAGASFPCAHPGGWQKRHVGFDDDLVKGPEIDYESEPPSFRRLRHSFLKLWNYNEAQFKAALYRHAFSSFPAYNYDTTAILCRCIYQLCADATSALPLNSILMLLTDRQSYLWRRMARLSGYVICSFTLNGCRREIGPSMPTTIQRVVPIPLDDGCWDGGRSRGSHRATPSRGRGGASRVGREFGDDSSEDPIPPFCWKEGIRGAVLESIELKLAKLSEEFIDEFVLYGRQQGLLLQLQGADSTVNGRLLATTLRRFCKQPEDRYVLMDLYEWLAAAMTFSQKCIKAKIEAAKRASPSPQCRIARPCTGRLQAFPPYERSEGRYGGRSTTPAFGSSVRGRSGCPGRVETPGATSAMTRGRSIARVSMGARRGVVEDSVHSIAYENALSSRTKSRERHADTPTRSRLVLRGNRAADFQRPVRGRSPDSSANHTGVFGRRSDGKLSTQSGVRSSSASRSRLTNQVSSGLTAREAAALCRLLQNQGKILEEVKQILNNMSAPGRRHTRVP
notes: as for B1
B3: SAS6L (natural protein)
chain: MATNFGFGGGASGCTDSVNFLAQVDTSAIDEMDPSLADGHTLVYSREVPFEIRLQETGSSLPGDVGRLEPIRVKILILGEETNPQHVRVELTSENDLFLNYTHALNEDLFRQMQERQKLMIEFGDYPSVLIKMLNSCIKEPHCFLAVLIMHTNGKARLDFIQSMEYKFIELLCLDCVQSTEEFTRRDMTFRYNALKSKLALLQARLHDIGCLLKLKSPSLLLHLQKAAQQQAHRRQQQVAAAAPIPGKLRAPGTTEGASTRFL
notes: as for B1
B4: CF1 (natural protein)
chain: MQPLAREVSRLPRSGPLGPVAAKKDDKTFIPTNVRVSPGEKNDRVVKTEKIDDSTDGSGSHDGPRNLETQLEALTREVRELTLRVQEEKEMKELLNSQLNDAYEELADARSEHRVRGFAGASGARLRGVRGLPAFEARWMEPEHPTAQTAIRSQQEFELLLQEERARRHTMFEQYERHMKVMRKNHHKEKLETKKKVLSQVEFLIKKYRRLASDAVAVAKRERERVAEERKRARELAERACKNFEADLKGRTKTALEQYRRLVQEAHTAAKQEREELHNKCKELQETVDNERREFDTLIVREAEAKMAKFRASYARMKQQTEEERRQYGVMMHEIAKRVEKECAEYEEFVIRTMRDLLQSKGVEMTESGLRDFFQKKREEMRPSGEGHSSTDGLVTVKYRFQAADPEDLQ
notes: as for B1

Experiments:
[1] = target: the molecule itself; assay: cryo-EM structure; intraconoidal microtubule ICMT-1, native, from isolated T. gondii conoids; single-particle analysis, 3.3 Å
[2] = target: the molecule itself; assay: cryo-EM structure; conoid fibers (CF), native, from isolated T. gondii conoids after sonication and α-chymotrypsin; single-particle analysis, 2.9 Å (8-nm repeat) and 3.1 Å (24-nm repeat)

Protein	stoichiometry N [1]	stoichiometry N [2]
B1	2	–
B2	2	–
B3	–	2
B4	–	2
